Target: human GFRAL (UniProtKB-Q6UXV0) (human) (UniProt Q6UXV0)
Experiment: cell-based or functional assay

Chain of human GFRAL (Q6UXV0 19-394): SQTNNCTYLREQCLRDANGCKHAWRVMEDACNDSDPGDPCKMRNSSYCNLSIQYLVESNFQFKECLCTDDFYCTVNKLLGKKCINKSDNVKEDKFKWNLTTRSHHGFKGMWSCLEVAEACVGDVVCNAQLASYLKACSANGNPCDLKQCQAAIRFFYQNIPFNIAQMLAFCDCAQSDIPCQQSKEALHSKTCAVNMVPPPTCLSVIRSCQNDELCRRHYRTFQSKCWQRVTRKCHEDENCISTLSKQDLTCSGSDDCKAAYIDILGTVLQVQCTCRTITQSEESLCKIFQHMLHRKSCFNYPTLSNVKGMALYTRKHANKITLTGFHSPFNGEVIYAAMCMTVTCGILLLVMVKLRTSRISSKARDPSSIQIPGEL

- Relative activity ratio (native GDF15 EC50: Fc-GDF15 construct EC50), ERK1/2 phosphorylation HTRF in HEK293T cells expressing human GFRAL and RET: 1
Substance: native GDF15 (ACROBiosystems, GD5-H5149) (from UniProt Q99988 195-308) (ligand)

Source: US20240391971A1
